Test results reported in patent US20130323234A1 (Pfizer, published 2013).

Columns and labels:
[1] = target: IGF1R on the human colon carcinoma cell line Colo205 (human, UniProt P08069 31-1367); test: cell-based or functional assay
[2] = target: IGF1R (UniProt P08069 31-932, limits assumed); test: cell-based or functional assay

- % IGF1R downregulated [1]: 48%
- % IGF1R downregulated [2]: 36%
B1: 2.12.1.fx antibody (antibody, human IgG2, kappa, V domains shown)
VH: QVQLVESGGGLVKPGGSLRLSCAASGFTFSDYYMSWIRQAPGKGLEWVSYISSSGSTRDYADSVKGRFTISRDNAKNSLYLQMNSLRAEDTAVYYCVRDGVETTFYYYYYGMDVWGQGTTVTVSS
VL: DIQMTQSPSSLSASVGDRVTITCRASQDIRRDLGWYQQKPGKAPKRLIYAASRLQSGVPSRFSGSGSGTEFTLTISSLQPEDFATYYCLQHNNYPRTFGQGTKLVIKR
